Reference: article PMC4783044, “Stoichiometry and Change of the mRNA Closed-Loop Factors as Translating Ribosomes Transit from Initiation to Elongation” (PLoS ONE, 2016)

Assays:
Flag-PAB1 [1] = target: T1, Flag-PAB1 (yeast, UniProt P04147 1-577); assay: co-IP + AUC; one-step anti-Flag bead purification from yeast crude extract (Tris pH 7.5, 0.15 M KCl, 2 mM MgCl2, 10% glycerol, 4°C), Flag peptide elution, then AU-FDS of the GFP fusion with AU-A230 or AU-A260 (20°C, 15,000 rpm); material migrating at 77S (monosomal translating complex); cycloheximide added to cells; cells on glucose (elongation), or glucose depleted 10 min and glucose added back for 1 min or 0 min (initiation)
T1 sequence (looked up): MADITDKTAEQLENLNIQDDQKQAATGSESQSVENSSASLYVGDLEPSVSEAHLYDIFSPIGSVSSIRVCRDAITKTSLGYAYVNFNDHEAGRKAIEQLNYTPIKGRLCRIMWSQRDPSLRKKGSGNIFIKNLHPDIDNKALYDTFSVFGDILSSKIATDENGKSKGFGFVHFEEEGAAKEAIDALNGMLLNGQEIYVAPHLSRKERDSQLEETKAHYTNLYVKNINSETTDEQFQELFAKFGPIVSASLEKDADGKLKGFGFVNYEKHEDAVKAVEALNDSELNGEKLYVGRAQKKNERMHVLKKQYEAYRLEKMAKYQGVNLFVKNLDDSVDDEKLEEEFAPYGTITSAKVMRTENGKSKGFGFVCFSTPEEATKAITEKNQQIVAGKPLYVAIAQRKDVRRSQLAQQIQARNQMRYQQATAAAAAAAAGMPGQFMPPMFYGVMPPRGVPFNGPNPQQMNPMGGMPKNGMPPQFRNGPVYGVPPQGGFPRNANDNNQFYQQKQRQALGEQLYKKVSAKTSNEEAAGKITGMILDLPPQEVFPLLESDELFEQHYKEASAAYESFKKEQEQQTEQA

Flag-PAB1 [2] = target: T1, Flag-PAB1; assay: co-IP + AUC; as a1, but material migrating from 90S to 200S (polysomal translating complexes); cells on glucose (elongation), or glucose depleted 10 min and glucose added back for 1 min (initiation); conditions: partners not purified
Flag-SBP1 (yeast) = Flag-SBP1 (yeast) (UniProt P10080); assay: co-IP + AUC; one-step anti-Flag bead purification from yeast crude extract (Tris pH 7.5, 0.15 M KCl, 2 mM MgCl2, 10% glycerol, 4°C), Flag peptide elution, then AU-FDS of the GFP fusion with AU-A230 or AU-A260 (20°C, 15,000 rpm); material migrating at 77S (monosomal translating complex); cycloheximide added to cells; cells on glucose (elongation), or glucose depleted 10 min and glucose added back for 1 min or 0 min (initiation)
Flag-PAB1 [3] = target: T1, Flag-PAB1; assay: co-IP + AUC; one-step anti-Flag bead purification from yeast crude extract (Tris pH 7.5, 0.15 M KCl, 2 mM MgCl2, 10% glycerol, 4°C), Flag peptide elution, then AU-FDS of the GFP fusion with AU-A230 or AU-A260 (20°C, 15,000 rpm); material migrating at 77S (monosomal translating complex); cycloheximide added to cells; cells on glucose (elongation), or glucose depleted 10 min and glucose added back for 1 min or 0 min …; conditions: partners not purified

Sequence of Flag-SBP1 (yeast) (P10080 whole entry, the tested form may be a part): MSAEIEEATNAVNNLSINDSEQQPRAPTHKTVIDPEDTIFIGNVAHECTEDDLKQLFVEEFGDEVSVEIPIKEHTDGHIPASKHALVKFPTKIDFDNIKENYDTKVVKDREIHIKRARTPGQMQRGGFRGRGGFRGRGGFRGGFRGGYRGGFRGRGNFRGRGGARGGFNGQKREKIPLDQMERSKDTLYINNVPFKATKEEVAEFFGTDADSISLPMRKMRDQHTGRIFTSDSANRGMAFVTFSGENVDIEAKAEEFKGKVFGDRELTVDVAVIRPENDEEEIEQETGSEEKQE

**Q.** “PUB1-GFP (from UniProt P32588 1-453) (natural protein)” was tested. Which relative level in the 77S monosomal translating complex, mRNA set at 100 (elongation) (Flag-PAB1 [1]) did it give?
**A.** The relative level in the 77S monosomal translating complex, mRNA set at 100 (elongation) was < 0.3 per 100 mRNA.

B1: eIF4E-GFP (natural protein, yeast, UniProt P07260 1-213, looked up)
chain: MSVEEVSKKFEENVSVDDTTATPKTVLSDSAHFDVKHPLNTKWTLWYTKPAVDKSESWSDLLRPVTSFQTVEEFWAIIQNIPEPHELPLKSDYHVFRNDVRPEWEDEANAKGGKWSFQLRGKGADIDELWLRTLLAVIGETIDEDDSQINGVVLSIRKGGNKFALWTKSEDKEPLLRIGGKFKQVLKLTDDGHLEFFPHSSANGRHPQPSITL
notes: the printed name puts GFP after the protein; source: yeast strain carrying the GFP fusion, in crude extract
**Q.** For B1, which “relative level in the polysomal translating complexes (90S to 200S), mRNA set at 100 (elongation)” value (Flag-PAB1 [2]) is on record?
**A.** Its value is 27 per 100 mRNA.

**Q.** What about the “relative level in the polysomal translating complexes (90S to 200S), mRNA set at 100 (initiation)” value (Flag-PAB1 [2]) of the same molecule?
**A.** Its value is 38 per 100 mRNA.

**Q.** What about the relative level in the 77S monosomal translating complex, mRNA set at 100 (elongation) (Flag-SBP1 (yeast)) of the same molecule?
**A.** The relative level in the 77S monosomal translating complex, mRNA set at 100 (elongation) was < 0.3 per 100 mRNA.

**Q.** What about the “relative level in the 77S monosomal translating complex, mRNA set at 100 (elongation)” value (Flag-PAB1 [3]) of the same molecule?
**A.** Its value is 16 per 100 mRNA.

**Q.** And the “relative level in the 77S monosomal translating complex, mRNA set at 100 (initiation)” value (Flag-PAB1 [3])?
**A.** Its value is 23 per 100 mRNA.

B2: SLF1-GFP (natural protein, yeast, UniProt Q12034 1-447, looked up)
chain: MSSQNLNDNPKNTSSAAEDKKKQTSSLKLAPIPTTSPWKSSSPDSNTVIPVEELRDISKTAKPSKNGSGSIKLTSNTKWTPITPSVIISGSKDTNSKSGKNSKNSKTNKKMKKRGKYNNDINKKDFNGQTNSTSEISNVSNLESKPLDANAKVNIHSSSGATANGNIKRITNNNNSTNGRQSRNYQNRNGKTRYNNNSRHSQAANNAISFPNNYQARPEYIPNASHWLNNNSRNSYKQLSYFRQQQYYNNINYQQQLQTPYYYSMEPIFKSIESIKNQIEFYFSEENLKTDEFLRSKFKKANDGFIPMSLIGKFYRMVNLSLGGDPNLILASMREVLQHKETNHLEIALGSIEGAQKNMADDFNPLENYFIRRENWAEYAMESNFDENDDETEKYNIEKLLGPNDLDNYSYMGYPNFFPSNENGKKSQSYDQGEISRQFEQNLQIND
notes: source: yeast strain carrying the GFP fusion, in crude extract
**Q.** B2 was tested. Which “relative level in the 77S monosomal translating complex, mRNA set at 100 (elongation)” value (Flag-PAB1 [3]) did it give?
**A.** Its value is 2.5 per 100 mRNA.

**Q.** And the “relative level in the 77S monosomal translating complex, mRNA set at 100 (initiation)” value (Flag-PAB1 [3])?
**A.** Its value is 3.5 per 100 mRNA.
